Assay results taken from the supplement of paper PMC9233669.
Variants at the floor of the assay were thinned out.

Experiments:
biotinyl-Ile-oxazolone = assay: self-aminoacylation, catalytic enhancement (BIO) (fold over background); higher = more active; k-Seq, kA / k0A0; sequences stand for … in GGGAAUGGAUCCACAUCUACGAAUUC…UUCACUGCAGACUUGACGAAGCUG
How it was run: (§1)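 The uncatalyzed rate is the low-activity peak of a bimodal Gaussian fit, and catalytic enhancement is median kA divided by it. The kA values came from pseudo-first-order fits, with 1000 bootstraps, of per-sequence fraction reacted measured by streptavidin capture, triplicate qPCR and Illumina sequencing. Mutagenized RNA pools with a 21-nt variable region (0.43 μM) were reacted with each biotinyl-aminoacyl-oxazolone at 2–1250 μM in 50 μL HEPES/NaCl/KCl/MgCl2/CaCl2 buffer with 5% acetonitrile, pH 6.9–7.0, for 90 minutes at room temperature.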

biotinyl-Trp-oxazolone = assay: self-aminoacylation, catalytic enhancement (BWO) (fold over background); higher = more active; k-Seq, kA / k0A0; sequences stand for … in GGGAAUGGAUCCACAUCUACGAAUUC…UUCACUGCAGACUUGACGAAGCUG
How it was run: as §1

biotinyl-Val-oxazolone = assay: self-aminoacylation, catalytic enhancement (BVO) (fold over background); higher = more active; k-Seq, kA / k0A0; sequences stand for … in GGGAAUGGAUCCACAUCUACGAAUUC…UUCACUGCAGACUUGACGAAGCUG
How it was run: as §1

biotinyl-Met-oxazolone = assay: self-aminoacylation, catalytic enhancement (BMO) (fold over background); higher = more active; k-Seq, kA / k0A0; sequences stand for … in GGGAAUGGAUCCACAUCUACGAAUUC…UUCACUGCAGACUUGACGAAGCUG
How it was run: as §1

biotinyl-Leu-oxazolone = assay: self-aminoacylation, catalytic enhancement (BLO) (fold over background); higher = more active; k-Seq, kA / k0A0; sequences stand for … in GGGAAUGGAUCCACAUCUACGAAUUC…UUCACUGCAGACUUGACGAAGCUG
How it was run: as §1

biotinyl-Phe-oxazolone = assay: self-aminoacylation, catalytic enhancement (BFO) (fold over background); higher = more active; k-Seq, kA / k0A0; sequences stand for … in GGGAAUGGAUCCACAUCUACGAAUUC…UUCACUGCAGACUUGACGAAGCUG
How it was run: as §1

Sequence	self-aminoacylation (biotinyl-Ile-oxazolone)	self-aminoacylation (biotinyl-Trp-oxazolone)	self-aminoacylation (biotinyl-Val-oxazolone)	self-aminoacylation (biotinyl-Met-oxazolone)	self-aminoacylation (biotinyl-Leu-oxazolone)	self-aminoacylation (biotinyl-Phe-oxazolone)
AUUACCCUGGUCAGCGAGAGA [Fam2.1 aminoacylation ribozyme variant]	1.43	1.54	1.51	1.27	1.26	0.961
CUACUUCAGACGAUCGGUCUG [Fam1A.1 aminoacylation ribozyme variant]	0.727	0.788	1.01	1.24	0.954	0.484
AUUACCCUUGUCAUCGAGCGA [Fam2.1 aminoacylation ribozyme variant]	1.49	0.631	1.19	1.12	1.67	0.755
AAGUUUUCUAAUAGUGGCAAG [Fam3.1 aminoacylation ribozyme variant]	0.856	0.658	0.662	0.758	0.804	0.75
CCACACUUAAAGCAACCGGUC [Fam1B.1 aminoacylation ribozyme variant]	1.08	0.943	1.16	1.2	0.876	0.756
AAGUUUGCUAAUCGACGCAAG [Fam3.1 aminoacylation ribozyme variant]	0.534	0.72	0.547	0.581	0.477	0.783
AAGGUUCCUAAUAGUCGCAAG [Fam3.1 aminoacylation ribozyme variant]	1.61	1.43	1.39	1.64	1.5	1.62
AUUUACCUAGGUCAGCGGGUG [Fam2.2 aminoacylation ribozyme variant]	2.49	3.98	3.16	4.01	4.23	24.5
AUUCACCUAGAUCGUCGGGUG [Fam2.2 aminoacylation ribozyme variant]	1.14	0.967	1.38	1.06	1.3	3.8
AAGUUUGCUAAUAGGCGCGAG [Fam3.1 aminoacylation ribozyme variant]	1.16	1.42	0.9	0.819	0.954	1.2
AAGUUUCCUAAUAGUCCCAAG [Fam3.1 aminoacylation ribozyme variant]	1.57	1.48	1.73	1.5	1	2.59
AUUCACCUGGGUCAUCGCGUG [Fam2.2 aminoacylation ribozyme variant]	8.24	14.3	9.89	14.3	17.1	110
AUUACCCUGGUCCUCGGGUGA [Fam2.1 aminoacylation ribozyme variant]	5.18	9.25	6.25	9.89	10.4	69.6
CUUCACCUAGGACAUCGGGUG [Fam2.2 aminoacylation ribozyme variant]	2.34	3.31	2.68	3.03	3.53	14.1
AUUCACCUAGCUCAUCCGGUG [Fam2.2 aminoacylation ribozyme variant]	2.45	3.68	2.51	3.18	3.7	16.5
CCACACUUCAAGCAAUCGGAA [Fam1B.1 aminoacylation ribozyme variant]	1.45	1.18	1.51	1.42	2.04	1.81
AUUACUCUGGUCAUUGAGUGA [Fam2.1 aminoacylation ribozyme variant]	4.15	9.3	3.61	7.88	8.45	32.7
CUACUUCAAAUAAUCGAUCUG [Fam1A.1 aminoacylation ribozyme variant]	0.669	0.839	0.592	0.534	0.495	1.94
CCACACUCCAAGCAAUCGGCC [Fam1B.1 aminoacylation ribozyme variant]	1.63	2.59	2.36	1.36	1.28	2.68
AAGUUAGCUAAUAGUCGGAAG [Fam3.1 aminoacylation ribozyme variant]	1.07	1.94	1.32	1.12	1.28	3.13
AUUGACCUAGGUCUUCGGGUG [Fam2.2 aminoacylation ribozyme variant]	3.85	4.79	3.97	4.29	4.19	19
AUCCACCUAGGUCAUCGGGUC [Fam2.2 aminoacylation ribozyme variant]	1.72	2.68	2.04	2.25	1.93	5.86
CGACUUCAAACCAUCGGUCUG [Fam1A.1 aminoacylation ribozyme variant]	0.838	0.886	1.08	0.807	0.811	0.966
AUUACCCUUGUCAUAGAGUGA [Fam2.1 aminoacylation ribozyme variant]	4.36	11	4.59	8.7	8.53	36.6
CCACACUUGAAGCCAUCGGUC [Fam1B.1 aminoacylation ribozyme variant]	1.24	1.6	1.47	1.24	0.811	0.99
AAGUUUUAUAAUAGUCGCAAG [Fam3.1 aminoacylation ribozyme variant]	1.72	1.99	1.64	1.77	1.61	3.02

Sequence	self-aminoacylation (biotinyl-Ile-oxazolone)	self-aminoacylation (biotinyl-Trp-oxazolone)	self-aminoacylation (biotinyl-Val-oxazolone)	self-aminoacylation (biotinyl-Met-oxazolone)	self-aminoacylation (biotinyl-Leu-oxazolone)	self-aminoacylation (biotinyl-Phe-oxazolone)
CCAUACUUCAAGCAAUCGGGC [Fam1B.1 aminoacylation ribozyme variant]	1.95	1.15	1.73	1.53	1.61	2.06
AUUACCCUGGUCAGGGAGUGA [Fam2.1 aminoacylation ribozyme variant]	2.57	2.41	2.54	3.36	3.27	18.9
AUUUACCUAUGUCAUCGGGUG [Fam2.2 aminoacylation ribozyme variant]	3.04	4.76	2.96	4.35	6.5	28
AAGUUAGCUAAUAGCCGCAAG [Fam3.1 aminoacylation ribozyme variant]	1.88	2.02	1.6	0.903	1.44	1.96
CUACUUCAAACCAUCGGUCCG [Fam1A.1 aminoacylation ribozyme variant]	0.761	0.99	0.922	0.868	0.996	0.607
AUUACCCUGGUCAUGGAGGGA [Fam2.1 aminoacylation ribozyme variant]	1.82	2.23	1.76	1.83	1.86	2.1
CUACUCGAAACAAUCGGUCUG [Fam1A.1 aminoacylation ribozyme variant]	0.837	0.979	1.01	0.942	0.84	0.599
AAGUUUGCGACUAGUCGCAAG [Fam3.1 aminoacylation ribozyme variant]	1.78	1.67	1.34	1.73	1.34	2.33
AUUCACCUAGGUAAUCGGGUA [Fam2.2 aminoacylation ribozyme variant]	1.39	1.8	1.47	1.55	1.33	5.56
CUACUUAAAACAAUCGGUCCG [Fam1A.1 aminoacylation ribozyme variant]	0.878	0.709	0.835	1.12	0.908	0.603
AUUACCCCCGUCAUCGAGUGA [Fam2.1 aminoacylation ribozyme variant]	2.84	4.67	3.12	4.43	4.7	18.4
CUUCACGUAGGUCAUCGGGUG [Fam2.2 aminoacylation ribozyme variant]	3.59	4.63	4.16	4.38	4.22	36.6
CUACUUCAAACAAUUGGACUG [Fam1A.1 aminoacylation ribozyme variant]	0.709	0.443	0.641	0.633	0.664	0.671
GCACACUUCAAGCAGUCGGUC [Fam1B.1 aminoacylation ribozyme variant]	1.56	1.69	1.41	1.55	1.75	1.33
UUUACCCUGGUCAACGAGUGA [Fam2.1 aminoacylation ribozyme variant]	3	8.31	3.5	5.61	5.66	26.1
CUGCUUCAACCAAUCGGUCUG [Fam1A.1 aminoacylation ribozyme variant]	1.31	43.2	1.38	1.41	2.45	79.4
CUACUUAAAACUAUCGGUCUG [Fam1A.1 aminoacylation ribozyme variant]	1.11	0.746	1.06	0.922	0.97	0.83
AUUACCAUGGUCAUCUAGUGA [Fam2.1 aminoacylation ribozyme variant]	5.41	15.6	5.38	11.1	11.1	59.9
CUACAACAAACAAUCGGUCUG [Fam1A.1 aminoacylation ribozyme variant]	0.646	0.491	0.642	0.496	0.743	0.946
CGACUUCAUACAAUCGGUCUG [Fam1A.1 aminoacylation ribozyme variant]	0.939	0.879	0.904	0.796	0.738	1.01
CCACACUUCAAGCAAUCUGAC [Fam1B.1 aminoacylation ribozyme variant]	0.493	0.429	0.549	0.41	0.325	0.63
AUUCACUUAGGUCUUCGGGUG [Fam2.2 aminoacylation ribozyme variant]	2.96	4.2	2.71	3.58	3.95	22.7
CAUCUUCAAACAAUCGGUCUG [Fam1A.1 aminoacylation ribozyme variant]	1.14	24.5	1.23	1.48	1.96	47
CCACACUUUAAGCAACCGGUC [Fam1B.1 aminoacylation ribozyme variant]	0.795	0.72	0.884	0.613	0.844	0.959
AAGUUUGCUAGUAGCCGCAAG [Fam3.1 aminoacylation ribozyme variant]	1.16	0.972	0.797	0.787	1.09	1.34
